Measurements from the supplement of paper PMC10724198.
± gives the standard deviation of the averaged measurements.

System: Saccharomyces cerevisiae
Test: protein stability index of tFT-peptide fusion (C-terminal peptide) (PSI (0-1 scale)); higher = more stable (slower turnover)
Conditions: genetic background: wild type; temperature: 30 C
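Further: PSI is a weighted mean of sequencing reads over stability bins, variants kept only with over 10 reads, mCherry proximal and sfGFP distal, peptide attached via GGGS linker.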

Sequence | protein stability index
RKKREKREKETN | 0.598 ± 0.026
RKKTQQKTQNIQ | 0.67 ± 0.024
RKNGEDLKKRGT | 0.726 ± 0.077
RKNHPEKKKKPN | 0.673 ± 0.024
RKNIKYNTKNSI | 0.654 ± 0.03
RKQNVASESERK | 0.752 ± 0.094
RKQQGDNHKGRG | 0.706 ± 0.14
RKQRAGRRKDKQ | 0.734 ± 0.043
RKRIPSITLPPP | 0.754 ± 0.063
RKRKEKSLKAKL | 0.784 ± 0.084
RKTHTRTQKRKL | 0.675 ± 0.01
RKTKIKKLGRDK | 0.644 ± 0.1
RKTRKKNRIRGI | 0.6857 ± 0.0054
RLAVQCVCQIGI | 0.621 ± 0.019
RLDDFSALPPRY | 0.781 ± 0.064
RLDFFIFSRWWI | 0.727 ± 0.031
RLFASNPALSNL | 0.709 ± 0.027
RLFHYPPPRHSY | 0.61 ± 0.043
RLFSAWGCGLPL | 0.7 ± 0.019
RLGGRDCWGPWG | 0.693 ± 0.017
RLGGRGRGSIHS | 0.652 ± 0.022
RLGVTVPLSGTV | 0.5342 ± 0.00099
RLGWGGVGVAGV | 0.683 ± 0.013

Sequence | protein stability index
RLHAILKRSGLE | 0.722 ± 0.068
RLHCEGCDPGSL | 0.7189 ± 0.0015
RLIDMNFPVKKE | 0.709 ± 0.04
RLLFPTLTAYLL | 0.63 ± 0.029
RLLPAPPPPTRP | 0.693 ± 0.036
RLLRLLTALPPL | 0.6387 ± 0.0026
RLLVGFLSPFSC | 0.713 ± 0.031
RLPASGTPAYSE | 0.67 ± 0.02
RLPAVPSHPGLL | 0.729 ± 0.037
RLPFLPPPPCPP | 0.716 ± 0.046
RLPHCLRPPLSP | 0.669 ± 0.069
RLPLYAIPPFPP | 0.636 ± 0.0091
RLRCRYLSSTYY | 0.712 ± 0.0078
RLRDMPRDLTFW | 0.706 ± 0.12
RLRGGVPGRTVG | 0.68 ± 0.078
RLRPGGHPCVFF | 0.66 ± 0.041
RLRPRHPRLLRS | 0.735 ± 0.034
RLSPLTLPFCTS | 0.645 ± 0.06
RLSPPGFRLGLF | 0.517 ± 0.029
RLSRPPRIPRSQ | 0.654 ± 0.0087
RLTLAFQKRSPP | 0.668 ± 0.1
RLTRRSCLFSIT | 0.785 ± 0.056
RLVAGETWAMSR | 0.674 ± 0.0045

Sequence | protein stability index
RMDIRVWATFCG | 0.705 ± 0.11
RMEGCRLSLGVP | 0.63 ± 0.075
RMGQQISSVRLF | 0.679 ± 0.0082
RMKKKKNKARDI | 0.729 ± 0.045
RMRTGTKCLSAG | 0.705 ± 0.17
RNCSSALPPPPS | 0.7154 ± 0.0028
RNERNAKAKNEK | 0.649 ± 0.012
RNHHPHHVPTSR | 0.667 ± 0.03
RNNKLGIRKSFL | 0.69 ± 0.035
RNRGPAIRVRRK | 0.635 ± 0.089
RNTPTATHHTTG | 0.681 ± 0.026
RNVFVPFMRGSP | 0.737 ± 0.077
RPAFPIPSLYPS | 0.725 ± 0.11
RPAIPPATPPPP | 0.649 ± 0.027
RPALRPSPPLSP | 0.682 ± 0.056
RPCPGPLPPPPP | 0.662 ± 0.013
RPDSGFPLRGSS | 0.75 ± 0.098
RPFSAPLCLLPS | 0.7 ± 0.024
RPFSMGSNNIIR | 0.7 ± 0.022
RPGRSDRCLRWS | 0.673 ± 0.017
RPGWSRGREAVA | 0.735 ± 0.14
RPHEAPTPGPVR | 0.646 ± 0.013
RPHVLAHSLLLS | 0.584 ± 0.011

Sequence | protein stability index
RPLLVPVSSTPP | 0.716 ± 0.045
RPLYPGSKVQLL | 0.691 ± 0.024
RPNQNAFACMSP | 0.702 ± 0.026
RPPPLLSPPSPP | 0.718 ± 0.026
RPPPPASPPSAP | 0.588 ± 0.076
RPPPPSPRPTRR | 0.755 ± 0.032
RPPRNLDPSVSI | 0.646 ± 0.13
RPPSPPLPPPLS | 0.6906 ± 0.0013
RPRLQNLSRSNV | 0.74 ± 0.074
RPSHSPAFSAFF | 0.681 ± 0.024
RPSLPPSPLLRP | 0.729 ± 0.0049
RPSPLPALASSL | 0.65 ± 0.037
RPSPPPLRPFVL | 0.576 ± 0.025
RPSTRARPKPTP | 0.693 ± 0.0086
RPTLPGGSPYYS | 0.75 ± 0.05
RPTTPKCSSPKP | 0.753 ± 0.11
RPTTTQPPPTAS | 0.62 ± 0.022
RPVPPPLPSPPP | 0.702 ± 0.016
RPVSALESPQAG | 0.727 ± 0.059
RQCAACLGNPST | 0.665 ± 0.1
RQFRKKNTLKSE | 0.65 ± 0.1
RQGGTMVRLLGY | 0.651 ± 0.089
RQIPAQAVKHVL | 0.588 ± 0.02

Sequence | protein stability index
RQKEVSISYCWI | 0.646 ± 0.12
RQLSSFSDRSGS | 0.715 ± 0.022
RQSITIAQPGRP | 0.643 ± 0.014
RQSREGKANRRW | 0.742 ± 0.049
RQVSRLFQGKKN | 0.707 ± 0.03
RRAESRNEKQHS | 0.687 ± 0.017
RRAGHYHYSVRL | 0.704 ± 0.053
RRAVLDSPSRRY | 0.786 ± 0.031
RRDIIMTKKTLH | 0.658 ± 0.069
RRGRNGGKADLR | 0.657 ± 0.0073
RRGTEGLGGGVG | 0.6265 ± 0.0052
RRHNPARSRARG | 0.686 ± 0.053
RRIFTLIARRLW | 0.672 ± 0.013
RRKSEYAYNTKN | 0.565 ± 0.036
RRLRWQNKIIGI | 0.868 ± 0.13
RRLVGEEGRTHV | 0.638 ± 0.05
RRNESHAGGRGP | 0.778 ± 0.07
RRPAQDAEPIQP | 0.661 ± 0.067
RRRGTYTYSLLL | 0.73 ± 0.014
RRRKGTKNMQSK | 0.727 ± 0.061
RRRMVYPLPPTL | 0.641 ± 0.052
RRRPSPKASILS | 0.719 ± 0.011
RRRSGAPVMRGS | 0.645 ± 0.074

Sequence | protein stability index
RRSASRQFLLNP | 0.73264 ± 0.00024
RRSENHTEHKGD | 0.712 ± 0.032
RRSLKIQKNMKR | 0.686 ± 0.083
RRSPYLPRILTP | 0.661 ± 0.023
RRSVSSRGCLFR | 0.7 ± 0.008
RRTGTFSGLAGL | 0.696 ± 0.0071
RRTYERRVATSR | 0.691 ± 0.031
RRVDVRKGRLTP | 0.753 ± 0.096
RRVKRGGARKEA | 0.654 ± 0.019
RRVRTTKKGLTI | 0.7266 ± 0.0036
RRYWVLSTVPVL | 0.615 ± 0.028
RSCAGGVGAVFF | 0.758 ± 0.055
RSCFLSLFFFGF | 0.653 ± 0.036
RSEIKKPIVIKT | 0.576 ± 0.045
RSFGRVVSCSGC | 0.6993 ± 0.0056
RSGGDGCRALSV | 0.708 ± 0.064
RSGSVGGMECHV | 0.7 ± 0.18
RSHPPPPVSRSP | 0.651 ± 0.045
RSHPRQSGLRTA | 0.652 ± 0.039
RSKDEKNKIGYK | 0.683 ± 0.044
RSPKGKKRVGKW | 0.714 ± 0.039
RSPPPFLSIFPL | 0.745 ± 0.01
RSPSFLRSFPAL | 0.686 ± 0.016

Sequence | protein stability index
RSRGSTKLKNLI | 0.817 ± 0.056
RSRKKKERWKTE | 0.707 ± 0.015
RSRRPALVLSGN | 0.729 ± 0.011
RSRRRFPPPPPI | 0.672 ± 0.062
RSSCVRGVTLAL | 0.695 ± 0.023
RSSEVQADRMCQ | 0.668 ± 0.025
RSSFCGVRAWLA | 0.704 ± 0.078
RSSKCRGQKGLG | 0.687 ± 0.014
RSSLSGLPPLPP | 0.721 ± 0.14
RSSPVPLSCRKG | 0.66 ± 0.037
RSVPPSSPPPYF | 0.699 ± 0.037
RSVWVGGVTNLG | 0.657 ± 0.063
RSWISGVRPSYP | 0.75 ± 0.036
RTCPSPSAHLRL | 0.741 ± 0.0085
RTECRCCVGEVG | 0.656 ± 0.069
RTKIEIKNRENI | 0.774 ± 0.12
RTKMKERTCEEG | 0.697 ± 0.02
RTLNILCGGALR | 0.691 ± 0.049
RTLPFPHAGLLF | 0.6816 ± 0.0061
RTPPCLTPLEET | 0.713 ± 0.037
RTQRGRMGGEQG | 0.762 ± 0.12
RTRPALPSPPPH | 0.725 ± 0.022
